Results reported in the supplement of paper PMC10065799, “High-throughput profiling of sequence recognition by tyrosine kinases and SH2 domains using bacterial peptide display” (eLife, 2023).

Test system: Fer (mouse)
Assay: phosphorylation enrichment, bacterial display (enrichment ratio); higher = better substrate or ligand; peptides without Tyr show the background
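Further: 11-residue human phosphosite peptides and single-mutation variants displayed on the E. coli surface, counted by deep sequencing, each peptide's frequency after selection divided by its frequency in the unselected input library; frequency after pTyr selection over input frequency; kinase dosed for 20-30% of maximal phosphorylation in three min.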

Q: With ALKKPYGVLFK [RPF2_Y59_YF] as the sequence, how does the phosphorylation enrichment read?
A: The phosphorylation enrichment was 0.403.

Q: FMFKVYSDPQP [FGFR1_Y280_C277Y_YF] was tested. Which phosphorylation enrichment did it give?
A: The phosphorylation enrichment was 0.679.

Q: ETKAFYPEEIS [HSPA1A_Y115] was tested. Which phosphorylation enrichment did it give?
A: The phosphorylation enrichment was 0.537.

Q: Which phosphorylation enrichment does the source give for SLNEGYAKDFD [FBP1_Y216_R218K] here?
A: The phosphorylation enrichment was 0.511.

Q: With AACQHYGVHTC [NR4A2_Y275_R278H] as the sequence, how does the phosphorylation enrichment read?
A: Its phosphorylation enrichment is 0.347.

Q: How did the phosphorylation enrichment turn out when SVMAEYGLFAA [VSX2_Y219_G223A_YF] was run?
A: The phosphorylation enrichment was 0.664.

Q: How did the phosphorylation enrichment turn out when CLAKMYYSAVE [CP_Y539_D544E] was run?
A: The phosphorylation enrichment was 1.35.

Q: For LLREWYVQDPF [SIX3_Y225_L226V_YF], which phosphorylation enrichment is on record?
A: Its phosphorylation enrichment is 0.576.

Q: For TRLAQYDSNSK [BMX_Y216_S212R], which phosphorylation enrichment is on record?
A: The phosphorylation enrichment was 0.445.

Q: AAVPAYDKIRV [STXBP2_Y401] was tested. Which phosphorylation enrichment did it give?
A: The phosphorylation enrichment was 2.02.

Q: For SVTCTYSRALN [TP53_Y126_P128R], which phosphorylation enrichment is on record?
A: The phosphorylation enrichment was 0.5.

Q: With VASSLYDILAR [GLB1_Y294] as the sequence, how does the phosphorylation enrichment read?
A: The phosphorylation enrichment was 1.96.

Q: How did the phosphorylation enrichment turn out when VRTGIYHGGKP [PIK3CA_Y361_E365K] was run?
A: Its phosphorylation enrichment is 0.359.

Q: With DEEEEYEFMNR [ERBB3_Y1197_D1194E_YF] as the sequence, how does the phosphorylation enrichment read?
A: The phosphorylation enrichment was 0.485.

Q: Which phosphorylation enrichment does the source give for VIEFSYTSADG [DHCR7_Y382_C380Y_YF] here?
A: The phosphorylation enrichment was 0.499.

Q: RSACTYLAPHL [PLK3_Y615_S618P] was tested. Which phosphorylation enrichment did it give?
A: The phosphorylation enrichment was 0.589.

Q: EEGNPSYSSAR [MCCC2_Y520_Y520S] was tested. Which phosphorylation enrichment did it give?
A: The phosphorylation enrichment was 0.513.

Q: Which phosphorylation enrichment does the source give for HAVVDYMRRQK [ATM_Y1915_L1910H] here?
A: Its phosphorylation enrichment is 0.535.

Q: With YVSSFYHAFSG [ACTN4_Y265] as the sequence, how does the phosphorylation enrichment read?
A: Its phosphorylation enrichment is 0.564.

Q: With KPFRVYCDMNT [FGB_Y269_YF] as the sequence, how does the phosphorylation enrichment read?
A: The phosphorylation enrichment was 0.593.

Q: With RGRSTCFWPRP [GAGE12J_Y9_Y9C_YF] as the sequence, how does the phosphorylation enrichment read?
A: Its phosphorylation enrichment is 0.786.

Q: How did the phosphorylation enrichment turn out when IAINKYGVSLI [MYO7A_Y2136] was run?
A: The phosphorylation enrichment was 0.527.

Q: For DLAAQYTTVGR [SGSH_Y240], which phosphorylation enrichment is on record?
A: The phosphorylation enrichment was 0.382.

Q: With SVVVPYEPPEI [TP53_Y220_V225I] as the sequence, how does the phosphorylation enrichment read?
A: Its phosphorylation enrichment is 0.4.

Q: How did the phosphorylation enrichment turn out when MTFQNYRQALF [FAM20C_Y279_G280R] was run?
A: The phosphorylation enrichment was 0.451.

Q: Which phosphorylation enrichment does the source give for RRERPYGGGGG [FUS_Y526] here?
A: Its phosphorylation enrichment is 0.46.

Q: Which phosphorylation enrichment does the source give for CDFKKYGKGLR [ZNF445_Y433_Y428C_YF] here?
A: The phosphorylation enrichment was 0.31.

Q: For IFQASYFRRGD [LTK_Y676_R673Q_YF], which phosphorylation enrichment is on record?
A: Its phosphorylation enrichment is 0.416.

Q: MDYRSYPHEYG [RBM10_Y44_R46H] was tested. Which phosphorylation enrichment did it give?
A: Its phosphorylation enrichment is 0.404.

Q: For MKGEYYRYLAE [YWHAG_Y131_D129E], which phosphorylation enrichment is on record?
A: The phosphorylation enrichment was 0.429.

Q: For CFTRKYTLPPG [HSPB1_Y142], which phosphorylation enrichment is on record?
A: Its phosphorylation enrichment is 0.459.

Q: Which phosphorylation enrichment does the source give for YCRHNYGVGES [HLA-DRB1_Y112_V115G] here?
A: The phosphorylation enrichment was 0.361.

Q: For HVEAVYIDIAD [PITPNA_Y140], which phosphorylation enrichment is on record?
A: Its phosphorylation enrichment is 2.23.

Target: Jak2 (UniProt O60674)
Assay: as above

Sequence of Jak2 (O60674 whole entry, looked up): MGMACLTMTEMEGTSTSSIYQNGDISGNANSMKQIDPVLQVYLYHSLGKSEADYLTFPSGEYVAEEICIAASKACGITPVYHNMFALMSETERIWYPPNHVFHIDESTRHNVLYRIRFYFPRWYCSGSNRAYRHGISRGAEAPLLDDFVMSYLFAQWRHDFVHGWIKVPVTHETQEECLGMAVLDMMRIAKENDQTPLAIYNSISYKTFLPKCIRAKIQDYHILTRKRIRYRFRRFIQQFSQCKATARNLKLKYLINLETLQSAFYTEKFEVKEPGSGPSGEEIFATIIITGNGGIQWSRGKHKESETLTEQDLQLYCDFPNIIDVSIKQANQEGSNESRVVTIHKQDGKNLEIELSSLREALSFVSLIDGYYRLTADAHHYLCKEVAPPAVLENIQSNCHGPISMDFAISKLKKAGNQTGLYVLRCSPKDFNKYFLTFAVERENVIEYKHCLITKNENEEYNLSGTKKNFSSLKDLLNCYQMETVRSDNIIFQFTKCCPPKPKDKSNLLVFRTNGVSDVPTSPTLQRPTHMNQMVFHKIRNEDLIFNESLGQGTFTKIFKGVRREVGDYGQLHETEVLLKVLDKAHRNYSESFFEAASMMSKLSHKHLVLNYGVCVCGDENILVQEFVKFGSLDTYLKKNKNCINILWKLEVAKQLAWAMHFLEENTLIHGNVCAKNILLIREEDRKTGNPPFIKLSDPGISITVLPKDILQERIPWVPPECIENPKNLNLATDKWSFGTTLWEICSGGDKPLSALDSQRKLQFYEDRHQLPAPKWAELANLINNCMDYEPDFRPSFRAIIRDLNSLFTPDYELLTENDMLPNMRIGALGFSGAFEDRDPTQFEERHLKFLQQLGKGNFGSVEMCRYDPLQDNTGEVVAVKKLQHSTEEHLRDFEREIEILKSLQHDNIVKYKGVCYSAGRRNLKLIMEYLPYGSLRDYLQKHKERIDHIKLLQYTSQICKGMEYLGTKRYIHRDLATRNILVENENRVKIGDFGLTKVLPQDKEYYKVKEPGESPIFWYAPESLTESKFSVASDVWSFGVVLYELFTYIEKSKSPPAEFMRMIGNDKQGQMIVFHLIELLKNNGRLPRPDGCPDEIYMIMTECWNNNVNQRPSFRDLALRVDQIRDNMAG

Q: Which phosphorylation enrichment does the source give for ALKKPYGVLFK [RPF2_Y59_YF] here?
A: The phosphorylation enrichment was 0.73.

Q: Which phosphorylation enrichment does the source give for FMFKVYSDPQP [FGFR1_Y280_C277Y_YF] here?
A: Its phosphorylation enrichment is 1.49.

Q: ETKAFYPEEIS [HSPA1A_Y115] was tested. Which phosphorylation enrichment did it give?
A: The phosphorylation enrichment was 1.16.

Q: For SLNEGYAKDFD [FBP1_Y216_R218K], which phosphorylation enrichment is on record?
A: The phosphorylation enrichment was 0.71.

Q: How did the phosphorylation enrichment turn out when AACQHYGVHTC [NR4A2_Y275_R278H] was run?
A: Its phosphorylation enrichment is 0.432.

Q: How did the phosphorylation enrichment turn out when SVMAEYGLFAA [VSX2_Y219_G223A_YF] was run?
A: Its phosphorylation enrichment is 0.734.

Q: CLAKMYYSAVE [CP_Y539_D544E] was tested. Which phosphorylation enrichment did it give?
A: The phosphorylation enrichment was 0.831.

Q: Which phosphorylation enrichment does the source give for LLREWYVQDPF [SIX3_Y225_L226V_YF] here?
A: Its phosphorylation enrichment is 0.892.

Q: How did the phosphorylation enrichment turn out when TRLAQYDSNSK [BMX_Y216_S212R] was run?
A: Its phosphorylation enrichment is 0.811.

Q: AAVPAYDKIRV [STXBP2_Y401] was tested. Which phosphorylation enrichment did it give?
A: Its phosphorylation enrichment is 0.874.

Q: For SVTCTYSRALN [TP53_Y126_P128R], which phosphorylation enrichment is on record?
A: Its phosphorylation enrichment is 1.07.

Q: For VASSLYDILAR [GLB1_Y294], which phosphorylation enrichment is on record?
A: Its phosphorylation enrichment is 1.24.

Q: For VRTGIYHGGKP [PIK3CA_Y361_E365K], which phosphorylation enrichment is on record?
A: Its phosphorylation enrichment is 0.464.

Q: DEEEEYEFMNR [ERBB3_Y1197_D1194E_YF] was tested. Which phosphorylation enrichment did it give?
A: The phosphorylation enrichment was 0.903.

Q: How did the phosphorylation enrichment turn out when VIEFSYTSADG [DHCR7_Y382_C380Y_YF] was run?
A: The phosphorylation enrichment was 0.764.

Q: For RSACTYLAPHL [PLK3_Y615_S618P], which phosphorylation enrichment is on record?
A: The phosphorylation enrichment was 1.59.

Q: Which phosphorylation enrichment does the source give for EEGNPSYSSAR [MCCC2_Y520_Y520S] here?
A: Its phosphorylation enrichment is 0.776.

Q: Which phosphorylation enrichment does the source give for HAVVDYMRRQK [ATM_Y1915_L1910H] here?
A: Its phosphorylation enrichment is 0.892.

Q: Which phosphorylation enrichment does the source give for YVSSFYHAFSG [ACTN4_Y265] here?
A: The phosphorylation enrichment was 0.895.

Q: KPFRVYCDMNT [FGB_Y269_YF] was tested. Which phosphorylation enrichment did it give?
A: The phosphorylation enrichment was 1.31.

Q: Which phosphorylation enrichment does the source give for RGRSTCFWPRP [GAGE12J_Y9_Y9C_YF] here?
A: The phosphorylation enrichment was 1.19.

Q: Which phosphorylation enrichment does the source give for IAINKYGVSLI [MYO7A_Y2136] here?
A: Its phosphorylation enrichment is 1.01.

Q: How did the phosphorylation enrichment turn out when DLAAQYTTVGR [SGSH_Y240] was run?
A: The phosphorylation enrichment was 0.724.

Q: How did the phosphorylation enrichment turn out when SVVVPYEPPEI [TP53_Y220_V225I] was run?
A: Its phosphorylation enrichment is 0.967.

Q: With MTFQNYRQALF [FAM20C_Y279_G280R] as the sequence, how does the phosphorylation enrichment read?
A: The phosphorylation enrichment was 0.867.

Q: How did the phosphorylation enrichment turn out when RRERPYGGGGG [FUS_Y526] was run?
A: The phosphorylation enrichment was 0.42.

Q: For CDFKKYGKGLR [ZNF445_Y433_Y428C_YF], which phosphorylation enrichment is on record?
A: The phosphorylation enrichment was 0.718.

Q: With IFQASYFRRGD [LTK_Y676_R673Q_YF] as the sequence, how does the phosphorylation enrichment read?
A: The phosphorylation enrichment was 1.18.

Q: How did the phosphorylation enrichment turn out when MDYRSYPHEYG [RBM10_Y44_R46H] was run?
A: Its phosphorylation enrichment is 0.682.

Q: Which phosphorylation enrichment does the source give for MKGEYYRYLAE [YWHAG_Y131_D129E] here?
A: Its phosphorylation enrichment is 1.42.

Q: CFTRKYTLPPG [HSPB1_Y142] was tested. Which phosphorylation enrichment did it give?
A: The phosphorylation enrichment was 0.787.

Q: For YCRHNYGVGES [HLA-DRB1_Y112_V115G], which phosphorylation enrichment is on record?
A: The phosphorylation enrichment was 0.65.

Q: For HVEAVYIDIAD [PITPNA_Y140], which phosphorylation enrichment is on record?
A: The phosphorylation enrichment was 0.922.
